Measured values as given in patent US6528270.

Molecular target: BCR-ABL kinase available in the cell (the BCR-ABL expressing cells)
Experiment: 35S-methionine labelling, immunoprecipitation with anti-ABL or anti-GRB-2 antibodies

- percent of the BCR-ABL kinase available in the cell complexed with GRB-2: 50 to 90%
Substance: GRB-2 (form and cells not named in the sentence) (from UniProt P62993 1-217)
